This test deals with annexin V endogenous in CHO-K1 cells (Homo sapiens (Human)) (UniProt P08758). Description: co-immunoprecipitation from CHO cells stimulated with 10 nM PMA, FIG. 2.

“δ-PKC endogenous in CHO-K1 cells (from UniProt P28867 1-674) (enzyme)” came in with a fold increase in the amount of complex after PMA stimulation (against before stimulation) of 4 fold.
